From patent US20250304700A1, “ANTI-BLOOD DENDRITIC CELL ANTIGEN 2 ANTIBODIES AND USES THEREOF” (Biogen MA Inc., priority 2012, published 2025) come the findings set out here.

Data set [1] deals with bulk polyclonal human IgG. The experiment in a line: Cross-interaction chromatography (CIC). It is filed as physicochemical. An excerpt:
Cross-interaction chromatography (CIC) is a high throughput method for preliminary assessment of the stickiness of mAb candidates (Jacobs et al., Pharm Res., 27 (1): 65-71 (2010)). In this method, bulk polyclonal human IgG is chemically coupled to an NHS-activated chromatography resin.

The next data set deals with circulating pDCs. The experiment in a line: Circulating pDC frequency after dosing cynomolgus monkeys. The data set is classed as in vivo, cynomolgus monkey. From the text:
Nine of these twelve cynomolgus monkeys were divided into 3 groups (3/group), and randomized to include equal representation of BDCA2 density and percent pDC in each group. […] Flow cytometry was used to identify circulating pDCs in the whole blood as CD20-CD14-CD123+HLA-DR+, and the pDC frequency (on log-scale) at each time point was graphed in R software (FIG. 54). A linear mixed effects model was fitted to log (pDC) frequencies using random intercepts for cynomolgus monkeys and fixed effects for dose group and time period: 1 hour, 6 hours, 1-27 days, and greater than 28 days. To assess whether pDC changed among different dose groups at different time periods, a preliminary model also included the interaction terms for dose group and different time periods.
The pDC frequency (on log-scale) at each time point was graphed in R software (FIG. 56). A linear mixed effects model was fitted, using continuous time and time at 1 hour as fixed factors, and cynomolgus monkeys as random intercepts.

As for “24F4S: hu24F4 H4/L1 with C95S light chain; differs from BIIB059 by 1 amino acid residue”, the Solubility entry in data set [1] (CIC data table) was “good”. This substance also yielded a Rt-Test in data set [1] (IgG-derivatized column) of 9.3. Besides, the “K′” value in data set [1] (higher K′ values may indicate lower solubility) worked out at 0.022. Also, the Rt-Blank in data set [1] (non-derivatized column) amounted to 9.1.

On to “BIIB059: humanized IgG1 anti-BDCA2 antibody, mature heavy chain SEQ ID NO: 4 and mature light chain SEQ ID NO: 3”, for which the “effect est., log % circulating pDC” value in the data set with circulating pDCs (Group: BIIB059 1 mg/kg IV v. vehicle) is on record as 0.49; in the data set with circulating pDCs (SC 0.2 mg/kg, time (continuous)), 0.01; in the data set on circulating pDCs (SC 0.2 mg/kg, time: 1 hr v. others), −0.78. Further, in the data set with circulating pDCs (tested doses), the “depletion of pDCs in the blood, in words” value is listed as “does not mediate a sustained depletion of pDCs”.
